Experimental data: US20010041790A1

Key:
[1] = molecular target: 35S-labeled hamster PrPsen, glycophosphoinositol-negative form (35S-HaPrPsen) (Syrian golden hamster) (UniProt P04273); assay: cell-based or functional assay
murine PrPsen (mouse) = murine PrPsen (mouse) (UniProt P04925); assay: cell-based or functional assay

Substance | IC50 of the conversion reaction [1] [µM] | also measured
hamster PrP synthetic peptide P119-136 | < 100 | –
hamster PrP synthetic peptide P119-128 | 550 | –
hamster PrP synthetic peptide P117-141 | 80 | –
hamster PrP synthetic peptide P119-141 | 120 | –
MoP109-141 (peptide) | – | IC50 of murine PrP conversion (murine PrPsen (mouse)): 50 µM; IC50 of the hamster PrP conversion reaction [1]: 70 µM
hamster PrP synthetic peptide P115-141 | 40 | –
Mo3F4P109-141 (peptide) | – | IC50 of murine PrP conversion (murine PrPsen (mouse)): 50 µM
hamster PrP synthetic peptide P113-141 | – | IC50 of the in vitro conversion [1]: 40 µM
